Paper PMC4615246 (Nucleus, 2015)
Blank lines part the entries; values can stand above or below the binder they belong to.

Key:
Assay in all cases: LacI/LacO array recruitment in cells
LacI-CFP-Nup155 = molecular target: T1, LacI-CFP-Nup155 (human, UniProt O75694 1-1391)
T1 sequence: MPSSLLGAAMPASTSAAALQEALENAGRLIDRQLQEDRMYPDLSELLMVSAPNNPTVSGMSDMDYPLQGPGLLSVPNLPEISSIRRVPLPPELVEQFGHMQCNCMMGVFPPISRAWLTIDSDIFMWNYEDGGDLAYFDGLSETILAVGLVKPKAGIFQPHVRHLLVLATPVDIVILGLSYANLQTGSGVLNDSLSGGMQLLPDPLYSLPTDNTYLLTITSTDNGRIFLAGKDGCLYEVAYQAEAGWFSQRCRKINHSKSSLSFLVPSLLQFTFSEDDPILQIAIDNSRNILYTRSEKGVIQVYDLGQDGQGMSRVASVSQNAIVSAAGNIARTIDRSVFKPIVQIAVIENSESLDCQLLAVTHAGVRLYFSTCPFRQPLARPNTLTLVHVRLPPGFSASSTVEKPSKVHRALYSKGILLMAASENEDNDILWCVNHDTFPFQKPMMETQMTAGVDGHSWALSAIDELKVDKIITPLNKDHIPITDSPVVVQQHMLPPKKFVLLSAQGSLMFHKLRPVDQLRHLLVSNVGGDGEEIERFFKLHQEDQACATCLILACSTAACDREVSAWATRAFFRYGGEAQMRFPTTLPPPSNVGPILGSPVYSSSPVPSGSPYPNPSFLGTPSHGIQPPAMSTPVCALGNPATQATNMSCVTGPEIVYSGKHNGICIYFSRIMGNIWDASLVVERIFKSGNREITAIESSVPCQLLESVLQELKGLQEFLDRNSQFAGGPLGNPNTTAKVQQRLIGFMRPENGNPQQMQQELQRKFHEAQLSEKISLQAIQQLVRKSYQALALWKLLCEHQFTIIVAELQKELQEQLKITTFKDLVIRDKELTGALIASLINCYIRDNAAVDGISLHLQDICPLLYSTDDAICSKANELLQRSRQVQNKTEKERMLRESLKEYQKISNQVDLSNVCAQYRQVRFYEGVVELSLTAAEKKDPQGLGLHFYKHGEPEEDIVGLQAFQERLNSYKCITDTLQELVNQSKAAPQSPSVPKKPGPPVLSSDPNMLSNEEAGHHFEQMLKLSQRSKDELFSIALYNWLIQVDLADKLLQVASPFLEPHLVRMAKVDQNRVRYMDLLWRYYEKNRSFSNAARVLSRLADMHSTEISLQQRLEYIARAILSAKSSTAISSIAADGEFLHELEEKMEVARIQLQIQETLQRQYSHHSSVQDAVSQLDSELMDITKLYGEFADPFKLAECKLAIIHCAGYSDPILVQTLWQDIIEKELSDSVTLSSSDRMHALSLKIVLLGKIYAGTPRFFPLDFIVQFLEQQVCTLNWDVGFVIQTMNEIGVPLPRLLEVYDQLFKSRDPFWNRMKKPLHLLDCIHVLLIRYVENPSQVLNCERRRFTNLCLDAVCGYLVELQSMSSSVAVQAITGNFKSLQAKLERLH

LacI-CFP-Nup98 = molecular target: T2, LacI-CFP-Nup98 (human, UniProt P52948 1-880)
T2 sequence: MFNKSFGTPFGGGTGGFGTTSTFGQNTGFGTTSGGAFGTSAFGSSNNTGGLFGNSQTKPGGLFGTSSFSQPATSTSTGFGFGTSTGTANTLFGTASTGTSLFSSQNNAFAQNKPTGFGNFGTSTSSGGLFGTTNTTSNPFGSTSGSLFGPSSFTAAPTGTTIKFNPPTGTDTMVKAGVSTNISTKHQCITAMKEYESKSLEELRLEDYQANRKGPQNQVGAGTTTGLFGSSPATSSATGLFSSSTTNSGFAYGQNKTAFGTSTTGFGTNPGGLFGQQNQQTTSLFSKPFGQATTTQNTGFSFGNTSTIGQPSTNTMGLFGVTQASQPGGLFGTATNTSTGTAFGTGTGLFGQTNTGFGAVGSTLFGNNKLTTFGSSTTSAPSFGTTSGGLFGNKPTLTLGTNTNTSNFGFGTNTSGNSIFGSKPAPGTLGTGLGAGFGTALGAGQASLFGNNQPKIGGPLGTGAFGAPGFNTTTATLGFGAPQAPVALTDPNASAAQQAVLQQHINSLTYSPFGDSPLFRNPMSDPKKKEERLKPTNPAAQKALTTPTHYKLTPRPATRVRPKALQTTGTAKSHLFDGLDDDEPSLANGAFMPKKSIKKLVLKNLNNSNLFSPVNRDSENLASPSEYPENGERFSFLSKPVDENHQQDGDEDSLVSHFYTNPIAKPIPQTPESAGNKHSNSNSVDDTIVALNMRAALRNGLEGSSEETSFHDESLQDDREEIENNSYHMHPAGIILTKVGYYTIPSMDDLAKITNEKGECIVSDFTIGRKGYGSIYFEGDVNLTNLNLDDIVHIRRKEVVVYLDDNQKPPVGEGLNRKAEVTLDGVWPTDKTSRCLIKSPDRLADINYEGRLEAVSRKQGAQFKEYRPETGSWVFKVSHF

LacI-CFP-Nup214 = LacI-CFP-Nup214 (human, UniProt P35658 1-2090)
LacI-CFP-Nup58 = molecular target: T3, LacI-CFP-Nup58 (human, UniProt Q9BVL2 1-599)
T3 sequence: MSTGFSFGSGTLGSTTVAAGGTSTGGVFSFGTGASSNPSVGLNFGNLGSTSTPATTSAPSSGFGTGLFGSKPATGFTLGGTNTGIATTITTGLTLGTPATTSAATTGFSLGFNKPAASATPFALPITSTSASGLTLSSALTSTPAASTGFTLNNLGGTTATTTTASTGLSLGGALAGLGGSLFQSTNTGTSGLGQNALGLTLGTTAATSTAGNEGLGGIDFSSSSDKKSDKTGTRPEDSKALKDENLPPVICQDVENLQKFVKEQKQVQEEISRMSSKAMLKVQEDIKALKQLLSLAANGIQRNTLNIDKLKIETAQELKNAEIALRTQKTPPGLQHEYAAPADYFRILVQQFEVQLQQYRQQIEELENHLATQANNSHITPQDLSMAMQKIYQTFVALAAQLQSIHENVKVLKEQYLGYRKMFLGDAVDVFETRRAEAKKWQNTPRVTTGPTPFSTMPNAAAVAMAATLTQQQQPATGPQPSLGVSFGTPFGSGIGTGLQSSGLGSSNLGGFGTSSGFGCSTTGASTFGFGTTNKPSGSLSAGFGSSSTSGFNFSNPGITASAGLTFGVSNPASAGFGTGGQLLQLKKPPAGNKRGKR

Chain of LacI-CFP-Nup214 (P35658 whole entry): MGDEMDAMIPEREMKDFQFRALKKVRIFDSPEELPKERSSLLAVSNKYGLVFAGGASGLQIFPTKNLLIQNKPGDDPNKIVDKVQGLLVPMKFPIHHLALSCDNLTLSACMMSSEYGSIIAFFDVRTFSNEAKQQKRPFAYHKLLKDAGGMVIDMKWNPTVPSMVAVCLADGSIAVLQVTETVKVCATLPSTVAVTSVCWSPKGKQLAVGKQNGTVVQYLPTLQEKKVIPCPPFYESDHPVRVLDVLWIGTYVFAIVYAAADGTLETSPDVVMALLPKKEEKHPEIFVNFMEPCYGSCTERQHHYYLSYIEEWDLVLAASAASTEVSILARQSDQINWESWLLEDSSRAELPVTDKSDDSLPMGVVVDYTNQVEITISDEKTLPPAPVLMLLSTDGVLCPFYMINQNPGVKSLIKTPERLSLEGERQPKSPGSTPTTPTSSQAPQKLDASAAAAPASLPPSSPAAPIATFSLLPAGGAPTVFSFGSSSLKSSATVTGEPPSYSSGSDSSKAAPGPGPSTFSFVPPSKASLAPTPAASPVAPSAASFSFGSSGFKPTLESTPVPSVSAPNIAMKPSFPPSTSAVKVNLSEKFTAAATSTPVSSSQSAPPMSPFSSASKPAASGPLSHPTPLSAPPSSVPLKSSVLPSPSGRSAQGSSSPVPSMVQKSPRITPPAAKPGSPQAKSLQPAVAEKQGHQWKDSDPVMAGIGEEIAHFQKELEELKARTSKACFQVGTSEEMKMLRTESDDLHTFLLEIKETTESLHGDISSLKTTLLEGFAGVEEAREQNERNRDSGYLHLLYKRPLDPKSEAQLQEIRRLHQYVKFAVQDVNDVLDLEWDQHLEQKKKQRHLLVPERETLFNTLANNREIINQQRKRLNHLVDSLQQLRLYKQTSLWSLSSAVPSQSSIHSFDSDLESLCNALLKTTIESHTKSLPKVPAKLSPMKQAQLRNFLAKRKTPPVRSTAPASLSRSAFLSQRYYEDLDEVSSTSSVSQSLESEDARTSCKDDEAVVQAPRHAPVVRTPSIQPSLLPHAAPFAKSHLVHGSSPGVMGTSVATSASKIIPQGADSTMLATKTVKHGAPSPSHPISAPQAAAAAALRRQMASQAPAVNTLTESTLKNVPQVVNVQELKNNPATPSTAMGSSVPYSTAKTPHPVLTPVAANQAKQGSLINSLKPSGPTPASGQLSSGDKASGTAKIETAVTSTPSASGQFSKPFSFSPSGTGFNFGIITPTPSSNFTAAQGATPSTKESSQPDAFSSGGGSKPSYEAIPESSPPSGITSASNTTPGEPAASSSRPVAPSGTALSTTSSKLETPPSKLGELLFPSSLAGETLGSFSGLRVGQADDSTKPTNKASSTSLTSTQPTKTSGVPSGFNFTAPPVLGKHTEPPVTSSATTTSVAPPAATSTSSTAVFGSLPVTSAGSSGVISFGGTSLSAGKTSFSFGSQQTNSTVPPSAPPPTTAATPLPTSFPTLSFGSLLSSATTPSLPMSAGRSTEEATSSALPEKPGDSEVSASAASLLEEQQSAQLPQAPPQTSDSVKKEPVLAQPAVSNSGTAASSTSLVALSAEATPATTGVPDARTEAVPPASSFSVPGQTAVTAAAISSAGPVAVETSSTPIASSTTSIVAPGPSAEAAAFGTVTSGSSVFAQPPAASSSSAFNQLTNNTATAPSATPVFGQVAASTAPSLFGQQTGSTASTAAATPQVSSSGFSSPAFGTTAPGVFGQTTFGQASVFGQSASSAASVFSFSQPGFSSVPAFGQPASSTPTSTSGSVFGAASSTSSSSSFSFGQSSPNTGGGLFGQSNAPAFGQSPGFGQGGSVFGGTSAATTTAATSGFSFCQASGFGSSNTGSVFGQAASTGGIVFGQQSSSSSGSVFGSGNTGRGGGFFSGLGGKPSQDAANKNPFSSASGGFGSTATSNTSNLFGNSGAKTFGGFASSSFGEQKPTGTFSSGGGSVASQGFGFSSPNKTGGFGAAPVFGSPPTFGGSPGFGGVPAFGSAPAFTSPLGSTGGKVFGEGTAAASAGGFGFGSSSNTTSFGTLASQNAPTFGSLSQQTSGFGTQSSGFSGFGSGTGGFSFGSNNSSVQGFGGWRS

- percent of transfected cells showing colocalization (LacI-CFP-Nup155): 46%
B1: Nup53 (endogenous) (natural protein)
chain: MAAFAVEPQGPALGSEPMMLGSPTSPKPGVNAQFLPGFLMGDLPAPVTPQPRSISGPSVGVMEMRSPLLAGGSPPQPVVPAHKDKSGAPPVRSIYDDISSPGLGSTPLTSRRQPNISVMQSPLVGVTSTPGTGQSMFSPASIGQPRKTTLSPAQLDPFYTQGDSLTSEDHLDDSWVTVFGFPQASASYILLQFAQYGNILKHVMSNTGNWMHIRYQSKLQARKALSKDGRIFGESIMIGVKPCIDKSVMESSDRCALSSPSLAFTPPIKTLGTPTQPGSTPRISTMRPLATAYKASTSDYQVISDRQTPKKDESLVSKAMEYMFGW

- percent of transfected cells showing colocalization (LacI-CFP-Nup155): 2%
B2: Nup93 (endogenous) (natural protein)
chain: MDTEGFGELLQQAEQLAAETEGISELPHVERNLQEIQQAGERLRSRTLTRTSQETADVKASVLLGSRGLDISHISQRLESLSAATTFEPLEPVKDTDIQGFLKNEKDNALLSAIEESRKRTFGMAEEYHRESMLVEWEQVKQRILHTLLASGEDALDFTQESEPSYISDVGPPGRSSLDNIEMAYARQIYIYNEKIVNGHLQPNLVDLCASVAELDDKSISDMWTMVKQMTDVLLTPATDALKNRSSVEVRMEFVRQALAYLEQSYKNYTLVTVFGNLHQAQLGGVPGTYQLVRSFLNIKLPAPLPGLQDGEVEGHPVWALIYYCMRCGDLLAASQVVNRAQHQLGEFKTWFQEYMNSKDRRLSPATENKLRLHYRRALRNNTDPYKRAVYCIIGRCDVTDNQSEVADKTEDYLWLKLNQVCFDDDGTSSPQDRLTLSQFQKQLLEDYGESHFTVNQQPFLYFQVLFLTAQFEAAVAFLFRMERLRCHAVHVALVLFELKLLLKSSGQSAQLLSHEPGDPPCLRRLNFVRLLMLYTRKFESTDPREALQYFYFLRDEKDSQGENMFLRCVSELVIESREFDMILGKLENDGSRKPGVIDKFTSDTKPIINKVASVAENKGLFEEAAKLYDLAKNADKVLELMNKLLSPVVPQISAPQSNKERLKNMALSIAERYRAQGISANKFVDSTFYLLLDLITFFDEYHSGHIDRAFDIIERLKLVPLNQESVEERVAAFRNFSDEIRHNLSEVLLATMNILFTQFKRLKGTSPSSSSRPQRVIEDRDSQLRSQARTLITFAGMIPYRTSGDTNARLVQMEVLMN

- percent of transfected cells showing colocalization (LacI-CFP-Nup98): 8%
- percent of transfected cells showing colocalization (LacI-CFP-Nup214): 97%
- percent of transfected cells showing colocalization (LacI-CFP-Nup58): 100%
B3: Nup62 (endogenous) (natural protein)
chain: MSGFNFGGTGAPTGGFTFGTAKTATTTPATGFSFSTSGTGGFNFGAPFQPATSTPSTGLFSLATQTPATQTTGFTFGTATLASGGTGFSLGIGASKLNLSNTAATPAMANPSGFGLGSSNLTNAISSTVTSSQGTAPTGFVFGPSTTSVAPATTSGGFSFTGGSTAQPSGFNIGSAGNSAQPTAPATLPFTPATPAATTAGATQPAAPTPTATITSTGPSLFASIATAPTSSATTGLSLCTPVTTAGAPTAGTQGFSLKAPGAASGTSTTTSTAATATATTTSSSSTTGFALNLKPLAPAGIPSNTAAAVTAPPGPGAAAGAAASSAMTYAQLESLINKWSLELEDQERHFLQQATQVNAWDRTLIENGEKITSLHREVEKVKLDQKRLDQELDFILSQQKELEDLLSPLEELVKEQSGTIYLQHADEEREKTYKLAENIDAQLKRMAQDLKDIIEHLNTSGAPADTSDPLQQICKILNAHMDSLQWIDQNSALLQRKVEEVTKVCEGRRKEQERSFRITFD
